# Experimental data: patent US20230348603A1
# B1: 12A12 mouse Fab (periplasmic extract) (Fab, V domains shown)
# VH: QVQMKQSGAELAKPGASVKMSCKASGYTFTNYWMHWVKQRPGQGLEWIGYINPSTGYTDYNQNFKDRATLTADKSSSTAYMQLSSLTSEDSAVYYCIRGSDYYGRDYWGQGTTLTVSS
# VL: DIQMTQTTSSLSASLGDRVTISCRASQDISNYLNWYQQKPDGTLKLLIYYTSRLHSGVPSRFSGSGSGTDYSLTISNLEQEDIATYFCRQGNTLPWTFGGGTKLEIK
# B2: 13H11 mouse Fab (periplasmic extract) (Fab, V domains shown)
# VH: QIQLVQSGPELKKPGETVKISCKASGYTFENFGMNWVKQAPGKGLKWMGWINTYTGEATYADDFKGRFAFSLETSASTAYLQINNLKNEDTATYFCARDGGFRHFDVWGAGTTVTVSS
# VL: ETTVTQSPASLSVATGEKVTIRCITSTDIDDDMNWYQQKPGEPPKLLISEGNTLRPGVPSRFSSSGYGTDFVFTIENMLSEDVADYYCLQSDNLPLTFGAGTKLELK
# B3: 14C05 mouse Fab (periplasmic extract) (Fab, V domains shown)
# VH: EVMLVESGPELKKPGETVKISCKASGYTFTNYGMNWVKQAPGKGLKWMGSINTYTGEATYADDFKGRFAFSLETSANTAYLQIDNLKNEDTATYFCARGDYYGRGTWFAYWGQGTLVTVSA
# VL: ETTVTQSHKFMSTSVGDRVSITCKASQDVSTAVAWYQQKPGQSPKLLIYSASYRYPGVPDRFTGSGSGTDFTFTISSVQAEDLAVYYCQQDYSSPWTFGGGTKLEIK
# B4: 14D12 mouse Fab (periplasmic extract) (Fab, V domains shown)
# VH: QIQLVQSGPELKKPGETVKISCKASGYTFTNYGMNWVKQTPGKGLKWMGLINTYTGEPTYADDFKGRFAFSLETSASTAYLQINNLKNEDMATYFCARERIYGYLHYFDYWGQGTTLTVSS
# VL: DVVMTQTPASLAVSLGQRATISCKASQSVDYDGDSYMNWYQQKPGQPPKLLIYAASNLESGIPARFSGSGSGTDFTLNIHPVEEEDAATYYCQQSNEDPRTFGGGTKLEIK
# B5: 15C03 mouse Fab (periplasmic extract) (Fab, V domains shown)
# VH: EVKLLESGPGLVKPSQSLSLTCTVTGYSITSDYAWNWIRQFPGNKLEWMGYISYSGSTRYNPSLKSRISITRDTSNNQFFLQLNSVTTEDTATYYCARSGYAAMDYWGQGTSVTVSS
# VL: ENVLTQSPAIMSASPGEKVTMTCRASSSVSSSYLHWYQQKSGASPKLWIYSTSNLASGVPARFSGSGSGTSYSLTISSVEAEDAATYYCQQYSGYPLTFGSGTKLEIK
# B6: 12A08 mouse Fab (periplasmic extract) (Fab, V domains shown)
# VH: EVMLVESGGGLVKPGGSLKLSCAASGFTFDDFYMYWVRQTPEKRLEWVASISDGGTYTYYPDSVKGRFTISRDNAKNTLYLQLSSLKSEDTAMYYCARGVDKYYYAMDYWGQGTSVTVSS
# VL: QILLTQSPAIMSASPGEKVTITCSASSSVSYMHWFQQKPGTSPKLWIYSTSNLASGVPARFSGSGSGTSYSLTISRMEAEDAATYYCQQRSSYPLTFGAGTKLELK
# B7: 16E03 mouse Fab (periplasmic extract) (Fab, V domains shown)
# VH: QVQLQQSGAELARPGASVKMSCKASGYTFTSYTMHWIKQRPGQGLEWIGYINPSSGHTYYNQKFKDKATLTPDKSSSTAYMQLTSLTSEDSAVYYCARRIPTAYAMDYWGQGTSVTVSS
# VL: EIQMTQSHKFMSTSVGDRVSITCKASQDVGTAVAWYQQKPGQSPKLLIYWASTRHTGVPDRFTGSGSGTDFTLTISNVQSEDLADYFCQQYSSYPLTFGAGTKLELK
# B8: 16E10 mouse Fab (periplasmic extract) (Fab, V domains shown)
# VH: QVQLQQSGAELVRPGTSVKISCKASGYTFTNYWLGWVKQRPGHGLEWIGDIYPGGGYTNYNEKFKGKATLTADTSSSTAYMQLSSLTSEDSAVYFCAKFYYYGSSYYFDSWGQGTTLTVSS
# VL: DIVLTQSPSSLSVSAGEKVTLSCKSSQSLLNSGNQENYLAWYQQKPGQPPKLLIYGASTRESGVPDRFTGSGSGTDFTLTISSVQAEDLAVYYCQNDHSYPLTFGAGTKLELK
# Target: Mouse VSIG4-His (mouse)
# Assay: ELISA, Fab P.E. 1:5 on coated antigen
# Chain of Mouse VSIG4-His (mouse) (chain, as listed by the source limits assumed): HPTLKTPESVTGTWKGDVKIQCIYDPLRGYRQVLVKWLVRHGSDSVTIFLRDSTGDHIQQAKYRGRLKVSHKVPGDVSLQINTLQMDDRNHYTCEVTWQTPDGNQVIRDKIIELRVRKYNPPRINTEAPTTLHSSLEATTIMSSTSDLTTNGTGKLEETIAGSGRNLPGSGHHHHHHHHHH
row,Binder,ELISA OD450
1,B1,0.063 OD450
2,B2,0.057 OD450
3,B3,0.059 OD450
4,B4,0.054 OD450
5,B5,0.065 OD450
6,B6,0.057 OD450
7,B7,0.057 OD450
8,B8,0.058 OD450
